Data taken from publication PMC8079166 (Biochemical Journal, 2021).

B1: HIV-1 LAI Nef ΔNΔL (residues 60–158;174–205) (domain or fragment)
chain: AQEEEEVGFPVTPQVPLRPMTYKAAVDLSHFLKEKGGLEGLIHSQRRQDILDLWIYHTQGYFPDWQNYTPGPGVRYPLTFGWCYKLVPVEPDKVEEANKDDPEREVLEWRFDSRLAFHHVARELHPEYFKN
B7: HIV-1 LAI Nef WLΔN (residues 56–205) (domain or fragment)
chain: AWLEAQEEEEVGFPVTPQVPLRPMTYKAAVDLSHFLKEKGGLEGLIHSQRRQDILDLWIYHTQGYFPDWQNYTPGPGVRYPLTFGWCYKLVPVEPDKVEEANKGENTSLLHPVSLHGMDDPEREVLEWRFDSRLAFHHVARELHPEYFKN

Key:
[1] = biological target: p85 subunit of PI3 kinase, nSH2–iSH2–cSH2 fragment (UniProt P27986 322-724); test: MST
[2] = biological target: HIV-1 SF2 Nef, full-length (HIV-1, SF2 isolate, UniProt P03407); test: ITC
[3] = biological target: T1, HIV-1 LAI Nef ΔN (residues 60–205) (HIV-1, LAI isolate, UniProt P03406 60-205); test: ITC
[4] = biological target: B7; test: ITC
[5] = biological target: B1; test: ITC
[6] = biological target: HIV-1 LAI Nef, full-length (HIV-1, LAI isolate, UniProt P03406); test: ITC
[7] = biological target: B1; test: MST
[8] = biological target: T1, HIV-1 LAI Nef ΔN (residues 60–205); test: MST
[9] = biological target: B7; test: MST

In the case of B1, the Kd [1] is reported as 53 ± 3 µM.

B2: Nef ΔNΔL preincubated with 50 µM FynR96 SH3 (complex)
chain 1: AQEEEEVGFPVTPQVPLRPMTYKAAVDLSHFLKEKGGLEGLIHSQRRQDILDLWIYHTQGYFPDWQNYTPGPGVRYPLTFGWCYKLVPVEPDKVEEANKDDPEREVLEWRFDSRLAFHHVARELHPEYFKN
chain 2: not shown
modifications: RED-NHS dye label
In the case of B2, the Kd [1] is reported as 47 ± 8 µM.

B3: Nef ΔNΔL preincubated with 50 µM Fyn_(R96I) SH3 (complex)
chain 1: AQEEEEVGFPVTPQVPLRPMTYKAAVDLSHFLKEKGGLEGLIHSQRRQDILDLWIYHTQGYFPDWQNYTPGPGVRYPLTFGWCYKLVPVEPDKVEEANKDDPEREVLEWRFDSRLAFHHVARELHPEYFKN
chain 2: not shown
modifications: RED-NHS dye label
B3 was tested, and the Kd [1] was 96 ± 18 µM.

B4: Nef ΔNΔL preincubated with 50 µM Fyn_(R96W) SH3 (complex)
chain 1: AQEEEEVGFPVTPQVPLRPMTYKAAVDLSHFLKEKGGLEGLIHSQRRQDILDLWIYHTQGYFPDWQNYTPGPGVRYPLTFGWCYKLVPVEPDKVEEANKDDPEREVLEWRFDSRLAFHHVARELHPEYFKN
chain 2: not shown
modifications: RED-NHS dye label
For B4, the Kd [1] was 79 ± 16 µM.

B5: Fyn SH3 domain, wild type (FynR96) (domain or fragment)
chain: not shown
In the case of B5, the Kd [2] is reported as 28.7 µM, the dH [2] is reported as -14.1 kcal/mol and the Kd [3] is reported as 83.3 µM. For the same binder, the dH [3] was -8.2 kcal/mol, the Kd [4] was 50.8 µM and the dH [4] was -3.39 kcal/mol. For the same binder, the Kd [5] was 24.3 µM, the dH [5] was -3.35 kcal/mol and the Kd [6] was 58.5 µM. It also gave a dH [6] of -11 kcal/mol.

B6: Fyn SH3 domain R96I (domain or fragment)
chain: not shown
Work on B6 yielded a Kd [7] of 24 ± 8 µM, a Kd [2] of 0.02 µM and a dH [2] of -18.5 kcal/mol. The “stoichiometry N” value [2] was 0.98, the Kd [3] was 5.06 µM and the dH [3] was -9.49 kcal/mol. For the same binder, the “stoichiometry N” value [3] was 0.87, the Kd [4] was 7.55 µM and the dH [4] was -5.14 kcal/mol. The “stoichiometry N” value [4] was 1.01, the Kd [5] was 3.86 µM and the dH [5] was -8.13 kcal/mol. For the same binder, the “stoichiometry N” value [5] was 0.97, the Kd [6] was 0.79 µM and the dH [6] was -9.73 kcal/mol. The “stoichiometry N” value [6] was 0.93.

B7 showed a Kd [1] of 72 ± 8 µM.

B8: Nef WLΔN preincubated with 50 µM Fyn_(R96I) SH3 (complex)
chain 1: AWLEAQEEEEVGFPVTPQVPLRPMTYKAAVDLSHFLKEKGGLEGLIHSQRRQDILDLWIYHTQGYFPDWQNYTPGPGVRYPLTFGWCYKLVPVEPDKVEEANKGENTSLLHPVSLHGMDDPEREVLEWRFDSRLAFHHVARELHPEYFKN
chain 2: not shown
modifications: RED-NHS dye label
For B8, the Kd [1] was 107 ± 12 µM.

B9: Nef WLΔN preincubated with 50 µM Fyn_(R96W) SH3 (complex)
chain 1: AWLEAQEEEEVGFPVTPQVPLRPMTYKAAVDLSHFLKEKGGLEGLIHSQRRQDILDLWIYHTQGYFPDWQNYTPGPGVRYPLTFGWCYKLVPVEPDKVEEANKGENTSLLHPVSLHGMDDPEREVLEWRFDSRLAFHHVARELHPEYFKN
chain 2: not shown
modifications: RED-NHS dye label
B9 showed a Kd [1] of 108 ± 14 µM.

B10: Nef WLΔN preincubated with 50 µM FynR96 SH3 (complex)
chain 1: AWLEAQEEEEVGFPVTPQVPLRPMTYKAAVDLSHFLKEKGGLEGLIHSQRRQDILDLWIYHTQGYFPDWQNYTPGPGVRYPLTFGWCYKLVPVEPDKVEEANKGENTSLLHPVSLHGMDDPEREVLEWRFDSRLAFHHVARELHPEYFKN
chain 2: not shown
modifications: RED-NHS dye label
B10 showed a Kd [1] of 104 ± 11 µM.

B11: Full-length LAI Nef preincubated with 50 µM FynR96 SH3 (complex)
chain 1: […]
chain 2: not shown
modifications: RED-NHS dye label
Work on B11 yielded a Kd [1] of 141 ± 14 µM.

B12: Nef fragment containing H1 (residues 8–26) (peptide)
peptide: SSVVGWPTVRERMRRAEPA
In the case of B12, the Kd [8] is reported as 699 ± 252 µM, the Kd [9] is reported as 1350 ± 219 µM and the Kd [7] is reported as 303 ± 50 µM.

B13: Full-length LAI Nef preincubated with 50 µM Fyn_(R96I) SH3 (complex)
chain 1: […]
chain 2: not shown
modifications: RED-NHS dye label
Binder B13 has a Kd [1] of 135 ± 10 µM.

B14: Full-length LAI Nef preincubated with 50 µM Fyn_(R96W) SH3 (complex)
chain 1: […]
chain 2: not shown
modifications: RED-NHS dye label
Work on B14 yielded a Kd [1] of 161 ± 17 µM.

B15: Fyn SH3 domain R96W (domain or fragment)
chain: not shown
In the case of B15, the Kd [2] is reported as 0.12 µM, the dH [2] is reported as -13.5 kcal/mol and the “stoichiometry N” value [2] is reported as 0.91. The Kd [3] was 1.28 µM, the dH [3] was -13.5 kcal/mol and the “stoichiometry N” value [3] was 0.9. For the same binder, the Kd [4] was 1.45 µM, the dH [4] was -7 kcal/mol and the “stoichiometry N” value [4] was 0.94. The Kd [5] was 0.78 µM, the dH [5] was -11.2 kcal/mol and the “stoichiometry N” value [5] was 0.98. For the same binder, the Kd [6] was 1.43 µM, the dH [6] was -12 kcal/mol and the “stoichiometry N” value [6] was 0.96.
